Assay results: patent US20150210761A1 (SAMSUNG ELECTRONICS, published 2015)
Residue numbers refer to the chain shown, from its start.

Assays:
Test in all cases: ELISA; antibody coated, FLAG-tagged RBD mutant, anti-FLAG-HRP detection
Ang2 RBD mutant S417 = target: T1, Ang2 RBD mutant S417 (human, UniProt O15123 276-496)
T1 chain: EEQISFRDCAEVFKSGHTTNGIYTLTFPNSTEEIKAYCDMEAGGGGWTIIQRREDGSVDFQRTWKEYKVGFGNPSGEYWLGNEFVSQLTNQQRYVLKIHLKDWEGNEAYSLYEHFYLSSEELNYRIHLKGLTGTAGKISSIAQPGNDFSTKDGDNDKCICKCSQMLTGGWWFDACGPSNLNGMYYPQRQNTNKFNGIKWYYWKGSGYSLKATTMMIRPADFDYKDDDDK

Ang2 RBD mutant P419 = target: T2, Ang2 RBD mutant P419 (human, UniProt O15123 276-496)
T2 chain: T1 chain with A142S, P144A

Ang2 RBD mutant I434 = target: T3, Ang2 RBD mutant I434 (human, UniProt O15123 276-496)
T3 chain: T1 chain with A142S, I159A

Ang2 RBD mutant D448 = target: T4, Ang2 RBD mutant D448 (human, UniProt O15123 276-496)
T4 chain: T1 chain with A142S, D173A

Ang2 RBD mutant N467 = target: T5, Ang2 RBD mutant N467 (human, UniProt O15123 276-496)
T5 chain: T1 chain with A142S, N192A

Ang2 RBD mutant F469 = target: T6, Ang2 RBD mutant F469 (human, UniProt O15123 276-496)
T6 chain: T1 chain with A142S, F194A

B1: SAIT-ANG2-AB-m1A10 (antibody, V domains shown)
VH: QVQLQQSGAELMKPGASVKISCKATDYTFSSYWLEWLIQRPGHGLEWIGEILPGSGSTNYNEKFRGKATFTEDTSSNTAYMQLSSLTSEDSAVYYCARGNHNSYYYAMDYWGQGTSVTVSS
VL: DIVLTQSPASLAVSLGQRATISCRASESVDSYGNSFMHWYQQKPGQPPKLLIYRASNLDSGIPARFSGSGSRTDFTLTINPVEADDVATYYCQQSNEDPLTFGAGTKLELK
notes: also called hybridoma KCLRF-BP-00306
- Binding (%) (mutant Ang2 / native Ang2) (Ang2 RBD mutant S417): 100%
- Binding (%) (mutant Ang2 / native Ang2) (Ang2 RBD mutant P419): 102%
- Binding (%) (mutant Ang2 / native Ang2) (Ang2 RBD mutant I434): 93.2%
- Binding (%) (mutant Ang2 / native Ang2) (Ang2 RBD mutant D448): 95.3%
- Binding (%) (mutant Ang2 / native Ang2) (Ang2 RBD mutant N467): 79.4%
- Binding (%) (mutant Ang2 / native Ang2) (Ang2 RBD mutant F469): 77.9%
